Laboratory results from PMC7376575 (The Biochemical journal, 2020).

T1: catalytic domain of MMP-1 (UniProt P03956 106-261)
T1 sequence: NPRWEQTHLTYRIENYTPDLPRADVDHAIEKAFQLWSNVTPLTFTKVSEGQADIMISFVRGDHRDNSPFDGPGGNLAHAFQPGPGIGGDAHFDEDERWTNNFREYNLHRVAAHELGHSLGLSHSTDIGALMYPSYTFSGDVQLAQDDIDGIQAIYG

T2: biotinylated catalytic domain of MMP-1 (UniProt P03956 106-261, biotin on Lys residues)
T2 sequence: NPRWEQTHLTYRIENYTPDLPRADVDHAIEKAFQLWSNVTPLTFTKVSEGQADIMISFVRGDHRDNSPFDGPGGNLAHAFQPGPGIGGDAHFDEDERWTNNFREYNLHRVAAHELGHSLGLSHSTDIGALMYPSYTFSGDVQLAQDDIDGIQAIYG


What was measured:
[1] = molecular target: catalytic domain of MMP-3 (UniProt P08254 100-272); assay: enzyme inhibition assay
Chain of catalytic domain of MMP-3 (P08254 100-272): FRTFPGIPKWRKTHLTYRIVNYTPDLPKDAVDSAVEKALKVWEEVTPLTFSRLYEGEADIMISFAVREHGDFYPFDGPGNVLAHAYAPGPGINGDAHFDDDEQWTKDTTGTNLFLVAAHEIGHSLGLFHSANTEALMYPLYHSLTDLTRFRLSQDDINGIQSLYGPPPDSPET

[2] = molecular target: T1, catalytic domain of MMP-1; assay: enzyme inhibition assay
[3] = molecular target: catalytic domain of MMP-14 (UniProt P50281 112-292); assay: enzyme inhibition assay
[4] = molecular target: biotinylated catalytic domain of MMP-14 (UniProt P50281 112-292, biotin on Lys residues (EZ-Link sulfo-NHS-LC-LC-biotin)); assay: flow cytometry on cells
[5] = molecular target: biotinylated catalytic domain of MMP-3 (UniProt P08254 100-272, biotin on Lys residues); assay: flow cytometry on cells
Chain of biotinylated catalytic domain of MMP-3 (P08254 100-272): as above

[6] = molecular target: T2, biotinylated catalytic domain of MMP-1; assay: flow cytometry on cells

Binder	Ki [1] [nM]	Ki [2] [nM]	Ki [3] [nM]	Kd [4] [nM]	Kd [5] [nM]	Kd [6] [nM]
N-TIMP2 T99Q (domain or fragment, native disulfides) CSCSPVHPQQAFCNADVVIRAKAVSEKEVDSGNDIYGNPIKRIQYEIKQIKMFKGPEKDIEFIYTAPSSAVCGVSLDVGGKKEYLIAGKAEGDGKMHIQLCDFIVPWDTLSTTQKKSLNHRYQMGCE	3.72	0.099	3.92	–	–	–
N-TIMP2 V71W (domain or fragment, native disulfides) CSCSPVHPQQAFCNADVVIRAKAVSEKEVDSGNDIYGNPIKRIQYEIKQIKMFKGPEKDIEFIYTAPSSAWCGVSLDVGGKKEYLIAGKAEGDGKMHITLCDFIVPWDTLSTTQKKSLNHRYQMGCE	26.4	2.99	34.3	–	–	–
N-TIMP2 H97R (domain or fragment, native disulfides) CSCSPVHPQQAFCNADVVIRAKAVSEKEVDSGNDIYGNPIKRIQYEIKQIKMFKGPEKDIEFIYTAPSSAVCGVSLDVGGKKEYLIAGKAEGDGKMRITLCDFIVPWDTLSTTQKKSLNHRYQMGCE	1.31	0.031	0.125	–	–	–
yeast-displayed N-TIMP2WT (domain or fragment) CSCSPVHPQQAFCNADVVIRAKAVSEKEVDSGNDIYGNPIKRIQYEIKQIKMFKGPEKDIEFIYTAPSSAVCGVSLDVGGKKEYLIAGKAEGDGKMHITLCDFIVPWDTLSTTQKKSLNHRYQMGCE	–	–	–	48.2	36.2	3.22
N-TIMP2 T99M (domain or fragment, native disulfides) CSCSPVHPQQAFCNADVVIRAKAVSEKEVDSGNDIYGNPIKRIQYEIKQIKMFKGPEKDIEFIYTAPSSAVCGVSLDVGGKKEYLIAGKAEGDGKMHIMLCDFIVPWDTLSTTQKKSLNHRYQMGCE	8.29	0.085	2.05	–	–	–

More lines, in order of falling Ki [1], values ahead:

Ki [1] [nM]	Ki [2] [nM]	Ki [3] [nM]	Kd [4] [nM]	Kd [5] [nM]	Kd [6] [nM]	Binder
86.2	5.59	–	–	–	–	N-TIMP2 V71R (domain or fragment, native disulfides) CSCSPVHPQQAFCNADVVIRAKAVSEKEVDSGNDIYGNPIKRIQYEIKQIKMFKGPEKDIEFIYTAPSSARCGVSLDVGGKKEYLIAGKAEGDGKMHITLCDFIVPWDTLSTTQKKSLNHRYQMGCE
4.71	0.249	1.42	–	–	–	N-TIMP2 S68E (domain or fragment, native disulfides) CSCSPVHPQQAFCNADVVIRAKAVSEKEVDSGNDIYGNPIKRIQYEIKQIKMFKGPEKDIEFIYTAPESAVCGVSLDVGGKKEYLIAGKAEGDGKMHITLCDFIVPWDTLSTTQKKSLNHRYQMGCE
4.24	0.08	0.534	–	–	–	N-TIMP2 T99G (domain or fragment, native disulfides) CSCSPVHPQQAFCNADVVIRAKAVSEKEVDSGNDIYGNPIKRIQYEIKQIKMFKGPEKDIEFIYTAPSSAVCGVSLDVGGKKEYLIAGKAEGDGKMHIGLCDFIVPWDTLSTTQKKSLNHRYQMGCE
3.29	0.181	2.6	–	–	–	N-TIMP2 S68M (domain or fragment, native disulfides) CSCSPVHPQQAFCNADVVIRAKAVSEKEVDSGNDIYGNPIKRIQYEIKQIKMFKGPEKDIEFIYTAPMSAVCGVSLDVGGKKEYLIAGKAEGDGKMHITLCDFIVPWDTLSTTQKKSLNHRYQMGCE
1.34	–	–	–	–	–	N-terminal domain of the tissue inhibitor of metalloproteinase 2, wild type (domain or fragment) CSCSPVHPQQAFCNADVVIRAKAVSEKEVDSGNDIYGNPIKRIQYEIKQIKMFKGPEKDIEFIYTAPSSAVCGVSLDVGGKKEYLIAGKAEGDGKMHITLCDFIVPWDTLSTTQKKSLNHRYQMGCE
